Test results taken from the supplement of paper PMC9112550, “Optimization of the antimicrobial peptide Bac7 by deep mutational scanning” (BMC Biology, 2022).

tested on: Escherichia coli TOP10; assay: shrunken log2 fold change of peptide-encoding DNA abundance (4.5 h post-induction vs induction); higher = less antimicrobial activity (less host growth inhibition); details: time post-induction: 4.5 h; library: site-saturation at positions 5, 18, 19, 20
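Further: peptides expressed intracellularly from a pBAD plasmid library in pooled LB shake-flask culture, induced with 0.3% L-arabinose, DNA abundance read by NGS, three biological replicates, DESeq2 with apeglm shrinkage.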

Row | Sequence | shrunken log2 fold change
1 | RRIRARPPRLPRPRPRPFDSPRP | -0.0745
2 | RRIRARPPRLPRPRPRPFFMPRP | -0.0309
3 | RRIRARPPRLPRPRPRPFGAPRP | 0.929
4 | RRIRARPPRLPRPRPRPFGQPRP | -0.0155
5 | RRIRARPPRLPRPRPRPFHGPRP | 0.0917
6 | RRIRARPPRLPRPRPRPFIAPRP | 0.0626
7 | RRIRARPPRLPRPRPRPFIRPRP | -0.27
8 | RRIRARPPRLPRPRPRPFKRPRP | 0.0331
9 | RRIRARPPRLPRPRPRPFLTPRP | 0.085
10 | RRIRARPPRLPRPRPRPFMWPRP | 0.065
11 | RRIRARPPRLPRPRPRPFNIPRP | -0.307
12 | RRIRARPPRLPRPRPRPFNNPRP | -0.688
13 | RRIRARPPRLPRPRPRPFQCPRP | 0.0143
14 | RRIRARPPRLPRPRPRPFQIPRP | -0.0627
15 | RRIRARPPRLPRPRPRPFRQPRP | 0.0566
16 | RRIRARPPRLPRPRPRPFRTPRP | 0.12
17 | RRIRARPPRLPRPRPRPFSHPRP | -0.124
18 | RRIRARPPRLPRPRPRPFTHPRP | -0.113
19 | RRIRARPPRLPRPRPRPFTWPRP | -0.193
20 | RRIRARPPRLPRPRPRPFWFPRP | 0.0903
21 | RRIRARPPRLPRPRPRPFYEPRP | -0.125
22 | RRIRARPPRLPRPRPRPFYMPRP | -0.45

Row | Sequence | shrunken log2 fold change
23 | RRIRARPPRLPRPRPRPGACPRP | 0.783
24 | RRIRARPPRLPRPRPRPGADPRP | 0.832
25 | RRIRARPPRLPRPRPRPGAIPRP | 0.828
26 | RRIRARPPRLPRPRPRPGAKPRP | 0.623
27 | RRIRARPPRLPRPRPRPGCYPRP | -0.00374
28 | RRIRARPPRLPRPRPRPGDEPRP | 0.393
29 | RRIRARPPRLPRPRPRPGEIPRP | 0.599
30 | RRIRARPPRLPRPRPRPGFAPRP | 0.57
31 | RRIRARPPRLPRPRPRPGFEPRP | 0.735
32 | RRIRARPPRLPRPRPRPGFQPRP | 0.092
33 | RRIRARPPRLPRPRPRPGGEPRP | 0.694
34 | RRIRARPPRLPRPRPRPGGGPRP | 0.898
35 | RRIRARPPRLPRPRPRPGGQPRP | 0.262
36 | RRIRARPPRLPRPRPRPGGSPRP | 0.535
37 | RRIRARPPRLPRPRPRPGHCPRP | 0.0986
38 | RRIRARPPRLPRPRPRPGHFPRP | 0.0329
39 | RRIRARPPRLPRPRPRPGHNPRP | -0.0862
40 | RRIRARPPRLPRPRPRPGIEPRP | 0.108
41 | RRIRARPPRLPRPRPRPGIWPRP | 0.168
42 | RRIRARPPRLPRPRPRPGLIPRP | 0.0698
43 | RRIRARPPRLPRPRPRPGLSPRP | 0.821
44 | RRIRARPPRLPRPRPRPGNCPRP | 0.061

Row | Sequence | shrunken log2 fold change
45 | RRIRARPPRLPRPRPRPGNEPRP | 0.215
46 | RRIRARPPRLPRPRPRPGNGPRP | 0.275
47 | RRIRARPPRLPRPRPRPGQAPRP | -0.0216
48 | RRIRARPPRLPRPRPRPGQPPRP | 0.00358
49 | RRIRARPPRLPRPRPRPGRGPRP | 0.486
50 | RRIRARPPRLPRPRPRPGRIPRP | 0.148
51 | RRIRARPPRLPRPRPRPGRPPRP | 0.801
52 | RRIRARPPRLPRPRPRPGSKPRP | 0.227
53 | RRIRARPPRLPRPRPRPGTAPRP | 0.493
54 | RRIRARPPRLPRPRPRPGTYPRP | -0.257
55 | RRIRARPPRLPRPRPRPGVNPRP | -0.238
56 | RRIRARPPRLPRPRPRPGWDPRP | 0.811
57 | RRIRARPPRLPRPRPRPGWFPRP | 0.524
58 | RRIRARPPRLPRPRPRPHAPPRP | 0.54
59 | RRIRARPPRLPRPRPRPHCFPRP | 0.36
60 | RRIRARPPRLPRPRPRPHCGPRP | 0.507
61 | RRIRARPPRLPRPRPRPHCHPRP | -0.195
62 | RRIRARPPRLPRPRPRPHCRPRP | -0.0687
63 | RRIRARPPRLPRPRPRPHDYPRP | 0.141
64 | RRIRARPPRLPRPRPRPHEPPRP | 0.00298
65 | RRIRARPPRLPRPRPRPHFEPRP | 0.703
66 | RRIRARPPRLPRPRPRPHGDPRP | 0.362

Row | Sequence | shrunken log2 fold change
67 | RRIRARPPRLPRPRPRPHKRPRP | 0.157
68 | RRIRARPPRLPRPRPRPHMFPRP | 0.0892
69 | RRIRARPPRLPRPRPRPHNTPRP | -0.235
70 | RRIRARPPRLPRPRPRPHNYPRP | -0.303
71 | RRIRARPPRLPRPRPRPHPGPRP | 0.219
72 | RRIRARPPRLPRPRPRPHPKPRP | 0.508
73 | RRIRARPPRLPRPRPRPHPLPRP | -0.0796
74 | RRIRARPPRLPRPRPRPHQHPRP | -0.109
75 | RRIRARPPRLPRPRPRPHQIPRP | 0.354
76 | RRIRARPPRLPRPRPRPHRNPRP | 0.192
77 | RRIRARPPRLPRPRPRPHVCPRP | -0.297
78 | RRIRARPPRLPRPRPRPIANPRP | 0.103
79 | RRIRARPPRLPRPRPRPIAVPRP | 0.166
80 | RRIRARPPRLPRPRPRPICFPRP | 1.21
81 | RRIRARPPRLPRPRPRPIEHPRP | 0.126
82 | RRIRARPPRLPRPRPRPIFAPRP | 0.555
83 | RRIRARPPRLPRPRPRPIFFPRP | 0.388
84 | RRIRARPPRLPRPRPRPIFSPRP | -0.00994
85 | RRIRARPPRLPRPRPRPIGCPRP | 0.445
86 | RRIRARPPRLPRPRPRPIGIPRP | 0.0254
87 | RRIRARPPRLPRPRPRPIGRPRP | 0.00162
88 | RRIRARPPRLPRPRPRPIGWPRP | 0.488

Row | Sequence | shrunken log2 fold change
89 | RRIRARPPRLPRPRPRPIHDPRP | -0.0961
90 | RRIRARPPRLPRPRPRPIHEPRP | -0.0242
91 | RRIRARPPRLPRPRPRPIIFPRP | -0.323
92 | RRIRARPPRLPRPRPRPIKMPRP | 0.0129
93 | RRIRARPPRLPRPRPRPIKTPRP | 0.213
94 | RRIRARPPRLPRPRPRPIMNPRP | -0.151
95 | RRIRARPPRLPRPRPRPINGPRP | -0.00875
96 | RRIRARPPRLPRPRPRPINKPRP | -0.311
97 | RRIRARPPRLPRPRPRPIPHPRP | 0.0126
98 | RRIRARPPRLPRPRPRPISIPRP | -0.439
99 | RRIRARPPRLPRPRPRPISWPRP | 0.508
100 | RRIRARPPRLPRPRPRPIVSPRP | 0.0293
101 | RRIRARPPRLPRPRPRPIWAPRP | 0.439
102 | RRIRARPPRLPRPRPRPIWWPRP | -0.00662
103 | RRIRARPPRLPRPRPRPKAQPRP | 1.26
104 | RRIRARPPRLPRPRPRPKCHPRP | 0.161
105 | RRIRARPPRLPRPRPRPKCYPRP | 0.00925
106 | RRIRARPPRLPRPRPRPKDAPRP | 0.347
107 | RRIRARPPRLPRPRPRPKDPPRP | 0.211
108 | RRIRARPPRLPRPRPRPKFFPRP | 0.305
109 | RRIRARPPRLPRPRPRPKFVPRP | 0.301
